In publication PMC10963238, “The bacterial division protein MinDE has an independent function in flagellation” (The Journal of Biological Chemistry, 2024):

Biological target: T1, His-tagged cytoplasmic part of AtoS (232–608aa, cyto-AtoS) (Escherichia coli K-12, UniProt Q06067 232-608)
T1 construct: AtoS of Escherichia coli K-12, cytoplasmic part, residues 232-608; also called His-cyto-AtoS; His-AtoS; source: E. coli BL21 [DE3], purified (Ni2+-NTA agarose)
T1 sequence (looked up): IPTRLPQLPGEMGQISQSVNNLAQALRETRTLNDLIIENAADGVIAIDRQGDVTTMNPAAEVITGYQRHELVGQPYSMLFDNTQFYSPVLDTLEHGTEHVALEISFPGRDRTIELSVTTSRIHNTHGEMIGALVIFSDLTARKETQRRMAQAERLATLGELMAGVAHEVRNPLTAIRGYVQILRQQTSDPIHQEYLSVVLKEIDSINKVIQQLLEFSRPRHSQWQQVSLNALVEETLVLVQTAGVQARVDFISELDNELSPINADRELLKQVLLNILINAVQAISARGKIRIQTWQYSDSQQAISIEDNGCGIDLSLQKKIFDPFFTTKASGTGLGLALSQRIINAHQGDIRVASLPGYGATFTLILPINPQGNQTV
Experiment: pull-down; GST-MinD (5 μM) with His-cyto-AtoS (5 μM) in 50 mM Hepes pH 7.4, 150 mM KCl, room temperature 30 min; His-cyto-AtoS held on HisPure cobalt resin, 1 h at 4 °C; washed with 20 mM imidazole, eluted with 300 mM imidazole; Western blot with anti-GST and anti-His
Conditions: both partners purified

B1: GST-MinD (natural protein, Escherichia coli K-12, UniProt P0AEZ3 1-270, looked up)
chain: MARIIVVTSGKGGVGKTTSSAAIATGLAQKGKKTVVIDFDIGLRNLDLIMGCERRVVYDFVNVIQGDATLNQALIKDKRTENLYILPASQTRDKDALTREGVAKVLDDLKAMDFEFIVCDSPAGIETGALMALYFADEAIITTNPEVSSVRDSDRILGILASKSRRAENGEEPIKEHLLLTRYNPGRVSRGDMLSMEDVLEILRIKLVGVIPEDQSVLRASNQGEPVILDINADAGKAYADTVERLLGEERPFRFIEEEKKGFLKRLFGG
notes: MinD of Escherichia coli K-12; ORF amplified from E. coli K-12 genomic DNA; also called GST-tagged MinD; source: dialyzed against 50 mM Hepes pH 7.4, 150 mM KCl, 10% glycerol
binding result: binds
